Tests used:
[1] = target: H-296, a polypeptide comprising a heparin binding domain and a CS-1 domain of fibronectin (Homo sapiens (Human)) (UniProt P02751); test: ELISA as in Example 34; H-296 coated at 6.25 ug/mL in pH 5.6 acetate buffer; HRP-labeled FNH3-8
[2] = target: H-296, a polypeptide comprising a heparin binding domain and a CS-1 domain of fibronectin (Homo sapiens (Human)) (UniProt P02751); test: ELISA as in Example 34; H-296 coated at 12.5 ug/mL in pH 5.6 acetate buffer; HRP-labeled FNH3-8
[3] = target: H296-H296-HT; test: ELISA; H296-H296-HT coated at 5 ug/mL; HRP-labeled FNH3-8, ABTS; blank subtracted
H296-H296-HT, sequence (chain, as listed by the source limits assumed): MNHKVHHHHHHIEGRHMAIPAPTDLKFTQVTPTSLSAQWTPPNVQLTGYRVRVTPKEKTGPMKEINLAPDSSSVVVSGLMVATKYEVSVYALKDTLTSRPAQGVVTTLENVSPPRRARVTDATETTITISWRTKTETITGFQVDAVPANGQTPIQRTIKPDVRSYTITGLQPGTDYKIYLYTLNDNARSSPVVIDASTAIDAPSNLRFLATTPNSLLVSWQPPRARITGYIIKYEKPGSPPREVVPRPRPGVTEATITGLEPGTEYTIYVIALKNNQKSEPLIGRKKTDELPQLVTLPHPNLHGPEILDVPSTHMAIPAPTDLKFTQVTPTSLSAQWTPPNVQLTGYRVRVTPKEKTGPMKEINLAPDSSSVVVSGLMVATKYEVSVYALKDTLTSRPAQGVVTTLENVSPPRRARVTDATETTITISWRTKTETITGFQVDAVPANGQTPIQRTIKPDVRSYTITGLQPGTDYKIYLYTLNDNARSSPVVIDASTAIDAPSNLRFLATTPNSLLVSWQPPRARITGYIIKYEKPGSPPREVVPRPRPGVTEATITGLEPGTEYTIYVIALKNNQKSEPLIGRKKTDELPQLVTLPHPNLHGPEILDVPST

[4] = target: H-296, a polypeptide comprising a heparin binding domain and a CS-1 domain of fibronectin (Homo sapiens (Human)) (UniProt P02751); test: ELISA; H-296 coated at 25 ug/mL in 0.2 M acetate buffer pH 5.6; HRP-labeled FNH3-8, ABTS
[5] = target: H296-H296 (modified fibronectin fragment in which two H-296's are connected); test: ELISA as in Example 34; H296-H296 coated at 6.25 ug/mL in PBS; HRP-labeled FNH3-8
[6] = target: H-296, a polypeptide comprising a heparin binding domain and a CS-1 domain of fibronectin (Homo sapiens (Human)) (UniProt P02751); test: ELISA as in Example 34; H-296 coated at 50 ug/mL in pH 5.6 acetate buffer; HRP-labeled FNH3-8
[7] = target: H-296, a polypeptide comprising a heparin binding domain and a CS-1 domain of fibronectin (Homo sapiens (Human)) (UniProt P02751); test: ELISA; H-296 coated at 25 ug/mL in 0.2 M phosphate buffer pH 6.8; HRP-labeled FNH3-8, ABTS
[8] = target: H271-H296; test: ELISA; H271-H296 coated at 18 ug/mL; HRP-labeled FNH3-8, ABTS; blank subtracted
H271-H296, sequence (chain, as listed by the source limits assumed): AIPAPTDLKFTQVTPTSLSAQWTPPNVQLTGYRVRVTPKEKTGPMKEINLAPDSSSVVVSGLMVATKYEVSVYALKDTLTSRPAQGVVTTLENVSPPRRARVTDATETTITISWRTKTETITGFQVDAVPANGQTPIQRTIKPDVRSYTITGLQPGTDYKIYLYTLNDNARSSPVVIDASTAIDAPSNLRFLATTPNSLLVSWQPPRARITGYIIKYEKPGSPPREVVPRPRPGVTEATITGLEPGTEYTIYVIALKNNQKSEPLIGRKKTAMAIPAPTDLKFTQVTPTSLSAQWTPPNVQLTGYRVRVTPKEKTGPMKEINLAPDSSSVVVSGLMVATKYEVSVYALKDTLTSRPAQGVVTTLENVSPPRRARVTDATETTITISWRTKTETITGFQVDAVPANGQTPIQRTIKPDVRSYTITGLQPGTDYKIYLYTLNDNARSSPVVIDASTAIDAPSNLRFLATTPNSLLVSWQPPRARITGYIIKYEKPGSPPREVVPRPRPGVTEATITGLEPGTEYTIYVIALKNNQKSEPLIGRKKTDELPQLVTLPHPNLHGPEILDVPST

[9] = target: H271-H296; test: ELISA; H271-H296 coated at 20 ug/mL; HRP-labeled FNH3-8, ABTS; blank subtracted
[10] = target: H271-H296; test: ELISA; H271-H296 coated at 10 ug/mL; HRP-labeled FNH3-8, ABTS; blank subtracted
[11] = target: H296-H271; test: ELISA; H296-H271 coated at 9 ug/mL; HRP-labeled FNH3-8, ABTS; blank subtracted
H296-H271, sequence (chain, as listed by the source limits assumed): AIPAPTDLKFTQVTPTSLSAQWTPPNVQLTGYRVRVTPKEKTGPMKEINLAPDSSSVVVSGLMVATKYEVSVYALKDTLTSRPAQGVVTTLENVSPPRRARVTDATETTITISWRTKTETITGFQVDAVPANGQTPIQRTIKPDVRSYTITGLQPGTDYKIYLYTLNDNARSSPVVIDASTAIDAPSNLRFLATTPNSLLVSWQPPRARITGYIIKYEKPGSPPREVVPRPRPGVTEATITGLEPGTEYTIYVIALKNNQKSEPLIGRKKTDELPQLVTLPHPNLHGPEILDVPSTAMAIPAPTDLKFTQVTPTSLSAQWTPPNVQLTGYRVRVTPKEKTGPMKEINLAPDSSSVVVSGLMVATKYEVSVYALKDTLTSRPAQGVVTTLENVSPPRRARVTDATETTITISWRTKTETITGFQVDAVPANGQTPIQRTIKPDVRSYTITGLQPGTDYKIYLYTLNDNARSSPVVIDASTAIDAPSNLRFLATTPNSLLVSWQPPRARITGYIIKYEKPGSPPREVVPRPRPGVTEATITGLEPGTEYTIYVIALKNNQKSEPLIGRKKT

[12] = target: H296-H271; test: ELISA; H296-H271 coated at 15 ug/mL; HRP-labeled FNH3-8, ABTS; blank subtracted
[13] = target: H296-H296-HT; test: ELISA; H296-H296-HT coated at 3 ug/mL; HRP-labeled FNH3-8, ABTS; blank subtracted
[14] = target: H-296, a polypeptide comprising a heparin binding domain and a CS-1 domain of fibronectin (Homo sapiens (Human)) (UniProt P02751); test: ELISA; H-296 coated at 25 ug/mL in 0.2 M acetate buffer pH 3.8; HRP-labeled FNH3-8, ABTS
[15] = target: H296-H296-HT; test: ELISA; H296-H296-HT coated at 4 ug/mL; HRP-labeled FNH3-8, ABTS; blank subtracted
[16] = target: H296-H271; test: ELISA; H296-H271 coated at 7 ug/mL; HRP-labeled FNH3-8, ABTS; blank subtracted
[17] = target: H-296, a polypeptide comprising a heparin binding domain and a CS-1 domain of fibronectin (Homo sapiens (Human)) (UniProt P02751); test: ELISA; H-296 coated at 50 ug/mL in 0.2 M acetate buffer pH 5.0; HRP-labeled FNH3-8, ABTS
[18] = target: H-296, a polypeptide comprising a heparin binding domain and a CS-1 domain of fibronectin (Homo sapiens (Human)) (UniProt P02751); test: ELISA as in Example 34; H-296 coated at 100 ug/mL in pH 5.6 acetate buffer; HRP-labeled FNH3-8
[19] = target: H271-H296; test: ELISA; H271-H296 coated at 16 ug/mL; HRP-labeled FNH3-8, ABTS; blank subtracted
[20] = target: H-296, a polypeptide comprising a heparin binding domain and a CS-1 domain of fibronectin (Homo sapiens (Human)) (UniProt P02751); test: ELISA; H-296 coated at 25 ug/mL in 0.2 M phosphate buffer pH 8.0; HRP-labeled FNH3-8, ABTS
[21] = target: H296-H271; test: ELISA; H296-H271 coated at 13 ug/mL; HRP-labeled FNH3-8, ABTS; blank subtracted
[22] = target: H296-H296 (modified fibronectin fragment in which two H-296's are connected); test: ELISA as in Example 34; H296-H296 coated at 1.563 ug/mL in PBS; HRP-labeled FNH3-8
[23] = target: H-296, a polypeptide comprising a heparin binding domain and a CS-1 domain of fibronectin (Homo sapiens (Human)) (UniProt P02751); test: ELISA; H-296 coated at 25 ug/mL in 0.2 M phosphate buffer pH 6.2; HRP-labeled FNH3-8, ABTS
[24] = target: H296-H296-H296-HT; test: ELISA; H296-H296-H296-HT coated at 25 ug/mL; HRP-labeled FNH3-8, ABTS; blank subtracted
H296-H296-H296-HT, sequence (chain, as listed by the source limits assumed): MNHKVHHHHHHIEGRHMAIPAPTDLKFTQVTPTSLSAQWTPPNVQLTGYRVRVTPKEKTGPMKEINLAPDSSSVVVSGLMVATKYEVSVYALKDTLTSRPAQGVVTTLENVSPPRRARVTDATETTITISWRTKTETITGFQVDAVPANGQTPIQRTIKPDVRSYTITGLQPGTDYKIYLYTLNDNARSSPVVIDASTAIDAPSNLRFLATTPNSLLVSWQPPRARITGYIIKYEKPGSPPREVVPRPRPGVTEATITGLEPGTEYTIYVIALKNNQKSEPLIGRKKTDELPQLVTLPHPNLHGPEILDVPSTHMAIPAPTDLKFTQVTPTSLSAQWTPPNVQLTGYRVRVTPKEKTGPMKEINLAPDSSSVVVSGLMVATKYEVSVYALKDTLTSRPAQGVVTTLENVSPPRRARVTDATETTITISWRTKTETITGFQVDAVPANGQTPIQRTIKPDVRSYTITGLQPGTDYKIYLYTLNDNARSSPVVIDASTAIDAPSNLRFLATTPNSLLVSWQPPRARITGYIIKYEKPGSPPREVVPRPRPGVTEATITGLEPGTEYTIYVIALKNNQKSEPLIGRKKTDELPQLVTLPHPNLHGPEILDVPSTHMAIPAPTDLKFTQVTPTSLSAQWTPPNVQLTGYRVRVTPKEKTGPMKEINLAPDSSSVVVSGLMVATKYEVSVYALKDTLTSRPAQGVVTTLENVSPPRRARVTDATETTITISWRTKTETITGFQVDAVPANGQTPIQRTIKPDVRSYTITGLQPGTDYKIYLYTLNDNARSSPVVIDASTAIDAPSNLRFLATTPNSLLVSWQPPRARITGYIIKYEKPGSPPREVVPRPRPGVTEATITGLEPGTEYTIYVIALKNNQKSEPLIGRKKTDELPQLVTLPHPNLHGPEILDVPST

[25] = target: H-296, a polypeptide comprising a heparin binding domain and a CS-1 domain of fibronectin (Homo sapiens (Human)) (UniProt P02751); test: ELISA; H-296 coated at 50 ug/mL in 0.2 M phosphate buffer pH 6.8; HRP-labeled FNH3-8, ABTS
[26] = target: H296-H296-H296-HT; test: ELISA; H296-H296-H296-HT coated at 3 ug/mL; HRP-labeled FNH3-8, ABTS; blank subtracted
[27] = target: H-296, a polypeptide comprising a heparin binding domain and a CS-1 domain of fibronectin (Homo sapiens (Human)) (UniProt P02751); test: ELISA as in Example 34; H-296 coated at 200 ug/mL in pH 5.6 acetate buffer; HRP-labeled FNH3-8

## FNH3-8 antibody (manufactured by TAKARA BIO INC.) labeled with HRP
[1]
  absorbance at 405 nm: 0.221
[2]
  absorbance at 405 nm: 0.277
[3]
  405 nm (Found Value - Blank): 0.878
[4]
  absorbance at 405 nm: 0.475
[5]
  absorbance at 405 nm: 1.29
[6]
  absorbance at 405 nm: 0.304
[7]
  absorbance at 405 nm: 0.075
[8]
  405 nm (Found Value - Blank): 0.61
[9]
  405 nm (Found Value - Blank): 0.603
[10]
  405 nm (Found Value - Blank): 0.6
[11]
  405 nm (Found Value - Blank): 0.56
[12]
  405 nm (Found Value - Blank): 0.635
[13]
  405 nm (Found Value - Blank): 0.742
[14]
  absorbance at 405 nm: 0.243
[15]
  405 nm (Found Value - Blank): 0.843
[16]
  405 nm (Found Value - Blank): 0.518
[17]
  absorbance at 405 nm: 0.451
[18]
  absorbance at 405 nm: 0.499
[19]
  405 nm (Found Value - Blank): 0.594
[20]
  absorbance at 405 nm: 0.104
[21]
  405 nm (Found Value - Blank): 0.609
[22]
  absorbance at 405 nm: 0.732
[23]
  absorbance at 405 nm: 0.131
[24]
  405 nm (Found Value - Blank): 0.991
[25]
  absorbance at 405 nm: 0.167
[26]
  405 nm (Found Value - Blank): 0.743
[27]
  absorbance at 405 nm: 0.964
